This data set in a line: soluble fraction after stress (log2 fold change); higher = more stays soluble; pooled small domains, quantitative proteomics. The following applies: stress: pH 4. Summed up: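 With high-throughput quantitative proteomics, pooled custom libraries of small protein domains were measured after pH 4 stress. Each domain's soluble amount after the stress gives a fold change taken as aggregation propensity. Higher log2 values mean more of the domain stayed soluble.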
Take “HMEDIEEVIVEIDTVLRTHFDRGRTEVLFAEIETAGGRPFMTYLALLFMAHRGSVRLQQDDLFGDLWVKDP”: the “soluble fraction (log2)” value was -0.959.
As for “HMEDISLYKILRAHSIDNLKLSQWIIDSLKTKFSTIGELQDAKIDDIRMYRIQDVRIEKIKNAVTEYMA”, the figure is -0.701.
Under “HMEDISQHAVKKLVQEMVMAEDPRDPLSDQQIAENLSRLGLKVARRTVAKYRAMLGIQPSNRRRK” stands 0.0963.
On to “HMEDIVDLVVEPEAAGRRLDAWLASRIERLSRSRIKALIESGHVAIGGATIVEAKKPVNSGDVVQLSVPEG”, for which the “soluble fraction (log2)” value was -0.121.
As for “HMEDKQRRMGELVALLNRAAYAYYTKDEPIMADVQYDRLYDELLSLEKETGVQMADSPTHRV”, the figure is -0.871.
In the case of “HMEDLMEERKEHLLSVMKDPAYVPMKQKELAMLLNVPKGLREELNQVLDALVAEGSVVMSKRGKYTIPQ”, the “soluble fraction (log2)” value came to 0.189.
Turning to “HMEDNLVTYPNPTSDYIYVSKKVDLTVVNMLGDILIQKQNINVLDVTELTPGMYTIVIRYNNVTTNKRIIK”, the “soluble fraction (log2)” value is -0.335.
Under “HMEDPFATLGVHREASLDEIKRAYRRLAMFWHPDRNPEAVAGTEFKRVHAAYELLLDPQRLAEWQQAQAT” stands -0.424.
Under “HMEDPLAAQWKQGRKLFHDDYGYGIISKAFTAGDELVIMVQFENGGEKRFLPKYQAHNLLLVEQ” stands -1.3.
As for “HMEDQVITQFNMRLIRAVMPQGAPMIVVYEDPKDYPGLFVARLFDGRKSTHLIALADTLEDI”, the figure is -0.351.
With “HMEDVDTAALEKVIATAKGLNKNDYTATTWTTMQAALTNAEKALEAKKSQTSVDEAAKTLQAAIDGLKKAS”, the “soluble fraction (log2)” value is -0.103.
As for “HMEDVPYMIKLPSHHYLTKMVDGSTGWSLVQNSNTVVGSSKEELLKQYPEYEDFIVQEPLNV”, the “soluble fraction (log2)” value is -0.336.
Under “HMEDVSTLAVKQRIDDLVKQENPAKPLSDSDIVARLKTDGIYIARRTVAKYRMELNIPSSSARKRAQQFS” stands 0.266; under “HMEDWTPERFVGAFVSGGPALRDEILLAATKDLSHAQATRLLKLAEARGLVHRSQPGPSERVRFVVARK”, -0.0732.
Under “HMEDYTPLQELGLKARYIELLEKGGIFSVEDLVQKSVDDLKDIDGIGEKTAKEIWEIVDSMVDF” stands -0.308; under “HMEDYYKEDYYTEVLKIPKEYIKGFQYYLIEDAEFVNALNAKNKTMTSFLAKKLASDYIEIIHQEQ”, -1.44; under “HMEEDDGVDFHERLTELNDEQVYYLINTEPAKVIALALDQLGQKRKINIMNRFNPDMKHSIIMELGKL”, -0.666.
For the sequence “HMEEDGAPLESREVLLDQAISQGKGTQWTIATETKLEDHIVSGAYSTDGKVTLAVFSPLGDGKYEFSSSVN”, the “soluble fraction (log2)” value is -0.172.
Under “HMEEDPIIIAQRFLNIFRQLHIFSEEKKESFNKMLLEQPAEIRGALRSLPGGGLLQDYIDDLESKA” stands -0.711.
For the sequence “HMEEEEITIHIIGEVKYPGIVILKTGQRIIDAIDAAGGETEEADLNKINLAQLLSDGDKIYVPSINDN”, the “soluble fraction (log2)” value was -1.05.
On to “HMEEFAGYINGQPYYGPTHQHRGVKMVGAEHTQRPHPLVWDSVAKSLDNYDNRFQWVNGNLLQVV”, for which the “soluble fraction (log2)” value was 0.3.
As for “HMEEFGRRLKERMIDKNMTEAELAQKTELWSSILTSYLKGERFPGYYTLLRIAEALDVSIDFLLGLRDEPE”, the figure is -2.01.
On to “HMEEILLSVKADGTYWVDQKEVTLDEVGALLDKEPDRLLNIFMDEKVPVRHFINVVDIAKVKREGRFII”, for which the “soluble fraction (log2)” value is -1.74.
Under “HMEEIQLILAKNLKSIREKEKLSLEKVSQLTGVSKTMIGQIERGDSSPTLTTIWKIANGLKVSFTSLINNP” stands 0.182.
As to “HMEEKKYEVGDVVSFNYLYKNSFAEGKVSSLIHSGTITRIIDGRPAPYLINRGTGWLSNDLILT”, the “soluble fraction (log2)” value is -0.179.
As for “HMEEKNNIIVSYIEDKISELEKASMYVPNENKEKLIMAFKNRNEDIDVIKTRIDTIFNNSVAAYKENME”, the figure is -1.32; as for “HMEEKTMNLPPSAKLVYKILSYEGNLTQKEIINMTYLPERTVRHALELLLGKRLITRQAYLNDARQSVYG”, -0.265; as for “HMEEKVEVPNLSGKTYQQAKALLESYGLVAAKGGEEESEEPVGKVSRWSSAGKSVKKGTTITVWISGGI”, 0.1.
As for “HMEEKWKENYEKIKLFISINNRYPSVYSEDKEEGLIGSFMSNQKRRKNKLSKEKMALFEALPNWIWE”, the figure is -0.812; as for “HMEELNFYPNPAYKYINLDYVGLKEIYTVLGKKLLETYDTRINISNLNSGIYLIKFKNQALRFVK”, -0.32.
In the case of “HMEELVGFEEKVRSILTSPLSAKEIKEKTHIEIDTRKLSKMLSELSFIKTEKKNGKKIFRLVS”, the “soluble fraction (log2)” value is -0.0997.
Consider “HMEEMADILKTRIDTLDLSTRTLNALTGANIRTVGGIARKKKEDLLELAGMGEKGIQEIKKVLGGFGITL”, for which the “soluble fraction (log2)” value amounted to 0.15.
As for “HMEEPEYELLRQAVLALPEKYRLPIHLYYYEEYSVREIAEILQRKESAVQTQLQRGREKIRRSLTEKGVS”, the figure is -0.941; as for “HMEEPLIISIDSNGAVYLEVDSFKDQSIEMSSLREIIEKIILANPDIQVVVRGDSEVKYEKVMDLMSILQS”, -1.95; as for “HMEEQGLPLVIISDGKVLAQNLTLRSLDRAWLQDQLTQHGHSKPEQVFLLTVDERGAVYYVPKE”, -1.86.
Under “HMEEQQIQLIQMKMEKDHKYVGKKISELRIKNMLIVLIKRGDEDIIPRAEVKIKEGDILVLSAQSYEG” stands -0.29; under “HMEETAFEKLSPLQKLRALGKPLTMINMRDGSQIAGSVQRSDDKFLYLDTGDGIAKLPVEEILRRTPM”, 0.13.
Regarding “HMEETIVFGQQKAINALSSDAGLSSNELDSYLKKRYKRPLYQLSKSEGAELIQGFQDGSLSKASIMDYVS”, the “soluble fraction (log2)” value is 0.346.
As for “HMEEVIEVEGKITAVLPSTMFRAELENGHQVLAHISGKLRKHFIKITVGDIVKMEMSTQDLQKARIV”, the figure is -0.831; as for “HMEEVRFPLKKEILLWALKEAQVDEDEVFRKFTNLEKWINGEKHPTFKQIESLANYLKIPFGYMFLEKPPI”, -1.47; as for “HMEEVVIPDLAGLTEEEATKVLMAKELKLKVSGSQHSDIEKGLIISQDPPAGEKGAKNSQVAVVTSSG”, -0.000599.
Under “HMEFDFGAILSGNGGSELYSGYSAEQKAALVEAAKADGMDVEFGADGSTTFKDKDGSEVVQKADGTWTV” stands -0.0653; under “HMEFDVELTSFEEAKKLKVIKEVKDVTGLSLGEAKDLVMGAPKAIKTGVSKEEAEAIKTQIEAAGAVVTI”, -0.699.
Under “HMEFDYIVKVPDVRNKKIEDAGKILIDLGLKYTTESDYITQDLKVIDQFPLPGTEVSKGSIIDIYLEEDFK” stands -0.446; under “HMEFEKYKYHYIFDDVLGLRIVWDRGKEHFSYFVNEELAEKSRKSDKDALEVMFYLEHKRWPEEGELENY”, -1.07; under “HMEFEYTVVVPETRGKTIGEAGRILLDLELKYTSESMNIREDSKVIDQFPSPGTEVSKGSIIDLYLDE”, -1.91.
As to “HMEFQISLAAARVNANMTQEDTARAMKVSKTTIVNWEKGKVIPGIPEVEMMSRLYGIPQDYIFLP”, the “soluble fraction (log2)” value is -0.796.
“HMEFSYLEEIGHEKGDLIKGLQLIQQKEGYVSDDAVRAVAENFGMSPAEVEGVLTFYAQFKR”: the “soluble fraction (log2)” value was -1.
As for “HMEGFKSVYFLTTPSGAEISDRSVGDIISKTPSLVSAQEGTEFEFNLKGYQPSFYMINKRSPDRVFVELIP”, the figure is -0.575; as for “HMEGLEKDDGGYYFEKDNGERARNEWVYVEYEGKGYWYYMTDYGYPLRSAITPDGYKVNSNGHWIDEGN”, -1.12.

The values above are taken from the domain aggregation screens of Martell et al. (2025).
